Reference: US20250197496A1 (EVOLVELMMUNE THERAPEUTICS, published 2025)

T1: Human ULBP2 (recombinant) (human, UniProt Q9BZM5 26-217)
T1 construct: bought (R&D Systems) as ULBP2-Fc or ULBP2-His; also called recombinant ULBP2
T1 sequence: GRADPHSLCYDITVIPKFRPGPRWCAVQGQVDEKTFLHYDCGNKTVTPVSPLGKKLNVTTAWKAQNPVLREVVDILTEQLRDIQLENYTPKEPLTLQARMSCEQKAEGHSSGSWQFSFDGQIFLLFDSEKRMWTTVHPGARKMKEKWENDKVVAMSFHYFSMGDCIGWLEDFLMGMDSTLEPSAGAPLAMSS

B1: EIP0504 (bispecific antibody, V domains shown)
VH 1: EVQLLESGGGLVQPGGSLKLSCAASGFTFNTYAMNWVRKAPGKGLEWVARIRSKYNNYATYYADSVKDRFTISRDDSKNTAYLQMNNLKTEDTAVYYCVRHGNFGNSYVSWFAYWGQGTLVTVSS
VL 1: ELVVTQEPSLTVSPGGTVTLTCRSSTGAVTTSNYANWVQDKPGQAPRGLIGGTNKRAPGTPARFSGSLLGGKAALTLSGVQPEDEAEYYCALWYSNLWVFGGGTKLTVL
VH 2: EVQLVQSGAEVKKPGESLKISCKGSGYAFSTSWMNWVRQMPGKGLEWMGRIYPGDGDTNYNGNFKGQVTISADKSISTAYLQWSSLKASDTAMYYCARGGELRLEAMDSWGQGTLVTVSS
VL 2: EIVMTQSPATLSLSPGERITLSCSASSSIHSNYLHWYQQKPGQAPRLLIYRTSNLASGIPARFSGSGSGTDFTLTISSLQPEDFAVYYCQQGFSIPFTFGQGTKLEIK
notes: also called ULBP2(A06)-SP34; EV104.2:CD3.1
B2: ULBP2xCD3 bispecific CD58 fusion containing CD3 variant CD3-01 (bispecific antibody, V domains shown)
VH: EVQLLESGGGLVQPGGSLKLSCAASGFTFNTYAMNWVRKAPGKGLEWVARIRSKYNNYATYYADSVKDRFTISRDDSKNTAYLQMNNLKTEDTAVYYCVRHGNFGNSYVSWFAYWGQGTLVTVSS
VL: ELVVTQEPSLTVSPGGTVTLTCRSSTGAVTTSNYANWVQDKPGQAPRGLIGGTNKRAPGTPARFSGSLLGGKAALTLSGVQPEDEAEYYCALWYSNLWVFGGGTKLTVL
B3: ULBP2xCD3 bispecific CD58 fusion containing CD3 variant CD3-A2 (bispecific antibody, V domains shown)
VH: EVQLLESGGGLVQPGGSLKLSCAASGFTFNTYAMNWVRKAPGKGLEWVARIRSKYNNYATYYADSVKDRFTISRDDSKNTAYLQMNNLKTEDTAVYYCVRHGNFGNSYVSWFAYWGQGTLVTVSS
VL: ELVVTQEPSLTVSPGGTVTLTCRSSTGAVTTSNYANWVQDKPGQAPRGLIGDTNKRAPGTPARFSGSLLGGKAALTLSGVQPEDEAEYYCALWYSNLWVFGGGTKLTVL
B4: ULBP2xCD3 bispecific CD58 fusion containing CD3 variant CD3-A6 (bispecific antibody, V domains shown)
VH: EVQLLESGGGLVQPGGSLKLSCAASGFTFNDYAMNWVRKAPGKGLEWVARIRSKYNNYATYYADSVKDRFTISRDDSKNTAYLQMNNLKTEDTAVYYCVRHGNFGNSYVSWFAYWGQGTLVTVSS
VL: ELVVTQEPSLTVSPGGTVTLTCRSSTGAVTTSNYANWVQDKPGQAPRGLIGGTNKRAPGTPARFSGSLLGGKAALTLSGVQPEDEAEYYCALWYSNLWVFGGGTKLTVL
B5: ULBP2xCD3 bispecific CD58 fusion containing CD3 variant CD3-A8 (bispecific antibody, V domains shown)
VH: EVQLLESGGGLVQPGGSLKLSCAASGFTFNTYAMNWVRKAPGKGLEWVAKIRSKYNNYATYYADSVKDRFTISRDDSKNTAYLQMNNLKTEDTAVYYCVRHGNFGDSYVSWFAYWGQGTLVTVSS
VL: ELVVTQEPSLTVSPGGTVTLTCRSSTGAVTTSNYANWVQDKPGQAPRGLIGGTNKRAPGTPARFSGSLLGGKAALTLSGVQPEDEAEYYCALWYSQLWVFGGGTKLTVL
B6: ULBP2xCD3 bispecific CD58 fusion containing CD3 variant CD3-A5 (bispecific antibody, V domains shown)
VH: EVQLLESGGGLVQPGGSLKLSCAASGFTFNTYAMNWVRKAPGKGLEWVARIRSKYNNYATYYADSVKDRFTISRDDSKNTAYLQMNNLKTEDTAVYYCVRHGNFGDDYVSWFAYWGQGTLVTVSS
VL: ELVVTQEPSLTVSPGGTVTLTCRSSTGAVTTSNYANWVQDKPGQAPRGLIGGTNKRAPGTPARFSGSLLGGKAALTLSGVQPEDEAEYYCALWYSQLWVFGGGTKLTVL
B7: ULBP2xCD3 bispecific CD58 fusion containing CD3 variant CD3-A9 (bispecific antibody, V domains shown)
VH: EVQLLESGGGLVQPGGSLKLSCAASGFTFNTYAMNWVRKAPGKGLEWVARIRSKYNNYATYYADSVKDRFTISRDDSKNTAYLQMNNLKTEDTAVYYCVRHGSFGNSYVSWFAYWGQGTLVTVSS
VL: ELVVTQEPSLTVSPGGTVTLTCRSSTGAVTTSNYANWVQDKPGQAPRGLIGGTNKRAPGTPARFSGSLLGGKAALTLSGVQPEDEAEYYCALWYSQLWVFGGGTKLTVL
B8: EIP0373 (bispecific antibody)
heavy 1: EVQLLESGGGLVQPGGSLKLSCAASGFTFNTYAMNWVRKAPGKGLEWVARIRSKYNNYATYYADSVKDRFTISRDDSKNTAYLQMNNLKTEDTAVYYCVRHGNFGNSYVSWFAYWGQGTLVTVSSASTKGPSVFPLAPSSKSTSGGTAALGCLVKDYFPEPVTVSWNSGALTSGVHTFPACLQSSGLYSLSSVVTVPSSSLGTQTYICNVNHKPSNTKVDKKVEPKSSDKTHTCPPCPAPEAAGAPSVFLFPPKPKDTLMISRTPEVTCVVVDVSHEDPEVKFNWYVDGVEVHNAKTKPREEQYNSTYRVVSVLTVLHQDWLNGKEYKCKVSNKALPAPIEKTISKAKGQPREPQVCTLPPSREEMTKNQVSLSCAVKGFYPSDIAVEWESNGQPENNYKTTPPVLDSDGSFFLVSKLTVDKSRWQQGNVFSCSVMHEALHNHYTQKSLSLSPG
light 1: ELVVTQEPSLTVSPGGTVTLTCRSSTGAVTTSNYANWVQDKPGQAPRGLIGGTNKRAPGTPARFSGSLLGGKAALTLSGVQPEDEAEYYCALWYSNLWVFGGGTKLTVLGQPKANPTVTLFPPSSEELQANKADLVCLISDFYPGAVTVAWKADGSPVKAGVETCKPSKQSNNKYAASSYLSLTPEQWKSHRSYSCQVTHEGSTVEKTVAPTESS
heavy 2: not shown
light 2: not shown
notes: IgG1 bispecific, pairing set D; also called EGFR(Cetuximab)-SP34; V373
B9: EIP0506 (bispecific antibody, human IgG1, kappa, lambda)
heavy 1: EVQLLESGGGLVQPGGSLKLSCAASGFTFNTYAMNWVRKAPGKGLEWVARIRSKYNNYATYYADSVKDRFTISRDDSKNTAYLQMNNLKTEDTAVYYCVRHGNFGNSYVSWFAYWGQGTLVTVSSASTKGPSVFPLAPSSKSTSGGTAALGCLVKDYFPEPVTVSWNSGALTSGVHTFPACLQSSGLYSLSSVVTVPSSSLGTQTYICNVNHKPSNTKVDKKVEPKSSDKTHTCPPCPAPEAAGAPSVFLFPPKPKDTLMISRTPEVTCVVVDVSHEDPEVKFNWYVDGVEVHNAKTKPREEQYNSTYRVVSVLTVLHQDWLNGKEYKCKVSNKALPAPIEKTISKAKGQPREPQVCTLPPSREEMTKNQVSLSCAVKGFYPSDIAVEWESNGQPENNYKTTPPVLDSDGSFFLVSKLTVDKSRWQQGNVFSCSVMHEALHNHYTQKSLSLSPG
light 1: ELVVTQEPSLTVSPGGTVTLTCRSSTGAVTTSNYANWVQDKPGQAPRGLIGGTNKRAPGTPARFSGSLLGGKAALTLSGVQPEDEAEYYCALWYSNLWVFGGGTKLTVLGQPKANPTVTLFPPSSEELQANKADLVCLISDFYPGAVTVAWKADGSPVKAGVETCKPSKQSNNKYAASSYLSLTPEQWKSHRSYSCQVTHEGSTVEKTVAPTESS
heavy 2: QVQLVQSGAEVKKPGSSVKVSCKASGGTFSNYWMHWVRDAPGQGLEWMGATYRGHSDTYYNQKFKGRVTITADKSTSTAYMELSSLRSEDTAVYYCARGAIYDGYDVLDNWGQGTLVTVSSASTKGPSVFPLAPSSKSTSGGTAALGCLVDDYFPEPVTVSWNSGALTSGVHTFPAVLQSSGLYSLSSVVTVPSSSLGTQTYICNVNHKPSNTKVDKKVEPKSCDKTHTCPPCPAPEAAGAPSVFLFPPKPKDTLMISRTPEVTCVVVDVSHEDPEVKFNWYVDGVEVHNAKTKPREEQYNSTYRVVSVLTVLHQDWLNGKEYKCKVSNKALPAPIEKTISKAKGQPREPQVYTLPPCREEMTKNQVSLWCLVKGFYPSDIAVEWESNGQPENNYKTTPPVLDSDGSFFLYSKLTVDKSRWQQGNVFSCSVMHEALHNHYTQKSLSLSPG
light 2: not shown
notes: IgG1 bispecific, pairing set D; also called BCMA(Belantamab)-SP34; V506

Experiments:
[1] = molecular target: T2, human CD3 epsilon (recombinant, plate-coated) (human, UniProt P07766 23-126); experiment: sandwich ELISA, plate coated with CD3ε, luminescence (RLU)
T2 construct: also called CD3ε; Hu CD3 epsilon

[2] = molecular target: T1, Human ULBP2 (recombinant); experiment: sandwich ELISA, plate coated with antigen (legend paragraph 82 names no antigen; ULBP2 taken as the antigen of this antibody's target arm), luminescence (RLU)
[3] = molecular target: T3, cynomolgus CD3 epsilon/delta heterodimer, biotin labeled (cynomolgus, UniProt Q95LI8 22-105, biotin labeled); experiment: SPR, biotinylated CD3e/d on SA chip;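 note: analytes injected over immobilized CD3 heterodimer, association 60-120 s and dissociation 120-420 s, rate and affinity constants obtained by fitting sensorgrams to a 1:1 binding model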
T3 construct: bought (Acro Biosystems); also called Cyno CD3e/d
T3 sequence (chain, as listed by the source mutant, chain 1 of 2): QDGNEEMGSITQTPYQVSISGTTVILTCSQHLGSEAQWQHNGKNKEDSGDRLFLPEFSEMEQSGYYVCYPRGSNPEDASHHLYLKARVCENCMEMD
T3 sequence (Q95LI8 22-105, stated change not applied, chain 2 of 2): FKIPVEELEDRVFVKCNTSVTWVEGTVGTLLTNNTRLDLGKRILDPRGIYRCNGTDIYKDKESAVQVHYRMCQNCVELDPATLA

[4] = molecular target: T4, human CD3 epsilon/delta heterodimer, biotin labeled (human, UniProt P04234 22-105, biotin labeled); experiment: SPR, biotinylated CD3e/d on SA chip;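 note: analytes injected over immobilized CD3 heterodimer, association 60-120 s and dissociation 120-420 s, rate and affinity constants obtained by fitting sensorgrams to a 1:1 binding model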
T4 construct: bought (Acro Biosystems); also called Human CD3e/d

EGFR = EGFR (UniProt P00533 25-645, limits assumed); experiment: sandwich ELISA, plate coated with antigen (legend paragraph 82 names no antigen; EGFR taken as the antigen of the cetuximab arm), luminescence (RLU)

Binder | EC50 (read off the curve) [1] [µg/mL] | EC50 (read off the curve) [2] [µg/mL] | Kd [3] [nM] | koff [3] [s⁻¹] | kon [3] [M⁻¹ s⁻¹] | Kd [4] [nM] | koff [4] [s⁻¹] | kon [4] [M⁻¹ s⁻¹] | EC50 (read off the curve) (EGFR) [µg/mL]
B1 | ~0.4 | ~0.6 |  |  |  |  |  |  | 
B2 |  |  | 3.2 | 0.00515 | 1.6e+06 | 4.7 | 0.00819 | 1.76e+06 | 
B3 |  |  | 89 | 0.0227 | 256000 | 102 | 0.0263 | 257000 | 
B4 |  |  | 75 | 0.0418 | 558000 | 75 | 0.0479 | 640000 | 
B5 |  |  | 137 | 0.0614 | 448000 | 147 | 0.0635 | 432000 | 
B6 |  |  | 368 | 0.0337 | 91700 | 354 | 0.0245 | 69200 | 
B7 |  |  | 212 | 0.0718 | 338000 | 155 | 0.101 | 654000 | 
B8 | ~0.3 |  |  |  |  |  |  |  | ~0.3
B9 | ~0.5 |  |  |  |  |  |  |  | 
